B1: STK38L (parent)
chain: RQLAYSTVGTPDYIAPEVFMQTGY
B2: HDAC6 (parent)
chain: KMKTRELHRESSNFDSIYICPSTF

The values below come from the supplement of paper PMC10567573.
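Note: lentivirally expressed fusions sorted by FACS into six bins by GFP to DsRed ratio, PSI derived from sequencing read proportions per bin multiplied by bin number.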

In one data set the parent is B1. The experiment in a line: protein stability index of a GFP-peptide fusion (GPS, HEK-293T) (PSI 1-6); higher = more stable. The settings on record: c terminus: a fixed tail appended.
With RQLAYYTVGTPDYIAPEVFMQTGY [S6Y], the protein stability index amounted to 1.77.

The variants in a further data set derive from B2. Described as above. The settings on record: c terminus: a fixed tail appended.
As to KLKTRELHRESSNFDSIYICPSTF [M2L], the protein stability index was found to be 1.99.

In the case of KCKTRELHRESSNFDSIYICPSTF [M2C], the protein stability index amounted to 2.28.

For KSKTRELHRESSNFDSIYICPSTF [M2S], the protein stability index came to 2.37. Take KVKTRELHRESSNFDSIYICPSTF [M2V]: the protein stability index was 1.66. Regarding KDKTRELHRESSNFDSIYICPSTF [M2D], the protein stability index came out at 2.75.

Consider KEKTRELHRESSNFDSIYICPSTF [M2E], for which the protein stability index is 2.6. For the variant KAKTRELHRESSNFDSIYICPSTF [M2A], the protein stability index is 3.17. As to KGKTRELHRESSNFDSIYICPSTF [M2G], the protein stability index is 2.33. Consider KPKTRELHRESSNFDSIYICPSTF [M2P], for which the protein stability index amounted to 2.96. Same read-out and setting: the figure for KNKTRELHRESSNFDSIYICPSTF [M2N] is 2.37. With KTKTRELHRESSNFDSIYICPSTF [M2T], the protein stability index came out at 2.59. KYKTRELHRESSNFDSIYICPSTF [M2Y]: the protein stability index was 2.11.

Regarding KFKTRELHRESSNFDSIYICPSTF [M2F], the protein stability index was found to be 2.04. As to KKKTRELHRESSNFDSIYICPSTF [M2K], the protein stability index worked out at 2.91.

Turning to KRKTRELHRESSNFDSIYICPSTF [M2R], the protein stability index was found to be 2.12. The same measure, in the same setting: in the case of KQKTRELHRESSNFDSIYICPSTF [M2Q] it was 3.52; in that of KIKTRELHRESSNFDSIYICPSTF [M2I], 2.15. Regarding KWKTRELHRESSNFDSIYICPSTF [M2W], the protein stability index was determined as 2.21. Take KHKTRELHRESSNFDSIYICPSTF [M2H]: the protein stability index worked out at 2.43. With KMKTRELHRTSSNFDSIYICPSTF [E10T], the protein stability index amounted to 2.83. Consider KMKTRELHRFSSNFDSIYICPSTF [E10F], for which the protein stability index was found to be 2.26.

For the variant KMKTRELHRCSSNFDSIYICPSTF [E10C], the protein stability index turned out to be 2.18.

Consider KMKTRELHRNSSNFDSIYICPSTF [E10N], for which the protein stability index is 2.98. Take KMKTRELHRMSSNFDSIYICPSTF [E10M]: the protein stability index turned out to be 2.62.

As for KMKTRELHRKSSNFDSIYICPSTF [E10K], the protein stability index is 2.71. As to KMKTRELHRASSNFDSIYICPSTF [E10A], the protein stability index is 2.51. With KMKTRELHRDSSNFDSIYICPSTF [E10D], the protein stability index came to 2.03. Same read-out and setting: in the case of KMKTRELHRLSSNFDSIYICPSTF [E10L] it was 2.15; in that of KMKTRELHRRSSNFDSIYICPSTF [E10R], 2.1. Regarding KMKTRELHRPSSNFDSIYICPSTF [E10P], the protein stability index is 1.82. Still for that read-out and setting: the figure for KMKTRELHRGSSNFDSIYICPSTF [E10G] is 3.45; for KMKTRELHRSSSNFDSIYICPSTF [E10S] it is 1.79. Consider KMKTRELHRQSSNFDSIYICPSTF [E10Q], for which the protein stability index stood at 1.78.

Regarding KMKTRELHRHSSNFDSIYICPSTF [E10H], the protein stability index is 1.87. As for KMKTRELHRISSNFDSIYICPSTF [E10I], the protein stability index stood at 1.85.

In the case of KMKTRYLHRESSNFDSIYICPSTF [E6Y], the protein stability index worked out at 1.72. As for KMKTRCLHRESSNFDSIYICPSTF [E6C], the protein stability index was 1.31. Take KMKTRKLHRESSNFDSIYICPSTF [E6K]: the protein stability index turned out to be 2. Take KMKTRDLHRESSNFDSIYICPSTF [E6D]: the protein stability index worked out at 2.85. Still for that read-out and setting: the figure for KMKTRRLHRESSNFDSIYICPSTF [E6R] is 1.92. The same measure, in the same setting: in the case of KMKTRILHRESSNFDSIYICPSTF [E6I] it was 1.83; in that of KMKTRMLHRESSNFDSIYICPSTF [E6M], 1.6.

KMKTRFLHRESSNFDSIYICPSTF [E6F]: the protein stability index was found to be 1.86. Regarding KMKTRGLHRESSNFDSIYICPSTF [E6G], the protein stability index came to 1.57.

On to KMKTRPLHRESSNFDSIYICPSTF [E6P], for which the protein stability index is 1.66. Still for that read-out and setting: the figure for KMKTRNLHRESSNFDSIYICPSTF [E6N] is 2.32. On to KMKTRSLHRESSNFDSIYICPSTF [E6S], for which the protein stability index was 2.2. In the case of KMKTRLLHRESSNFDSIYICPSTF [E6L], the protein stability index came to 1.44. On to KMKTRTLHRESSNFDSIYICPSTF [E6T], for which the protein stability index turned out to be 3.12. The same measure, in the same setting: in the case of KMKTRVLHRESSNFDSIYICPSTF [E6V] it was 2.23. Take KMKTRWLHRESSNFDSIYICPSTF [E6W]: the protein stability index was 1.76. For KMKTRALHRESSNFDSIYICPSTF [E6A], the protein stability index was 1.99. On the same count and under the same terms, in the case of KMKTRHLHRESSNFDSIYICPSTF [E6H] it was 1.96. KMKTRQLHRESSNFDSIYICPSTF [E6Q]: the protein stability index was 2.66. In the case of KMKTRELHVESSNFDSIYICPSTF [R9V], the protein stability index came out at 2.85. KMKTRELHAESSNFDSIYICPSTF [R9A]: the protein stability index was 2.27.

Take KMKTRELHSESSNFDSIYICPSTF [R9S]: the protein stability index came to 2.27. With KMKTRELHCESSNFDSIYICPSTF [R9C], the protein stability index worked out at 2.39. For KMKTRELHDESSNFDSIYICPSTF [R9D], the protein stability index was 2.45. Turning to KMKTRELHPESSNFDSIYICPSTF [R9P], the protein stability index was determined as 2.45. With KMKTRELHLESSNFDSIYICPSTF [R9L], the protein stability index came out at 2.07. KMKTRELHHESSNFDSIYICPSTF [R9H]: the protein stability index amounted to 2.15. Take KMKTRELHFESSNFDSIYICPSTF [R9F]: the protein stability index turned out to be 1.39. On to KMKTRELHGESSNFDSIYICPSTF [R9G], for which the protein stability index came out at 2.38. Turning to KMKTRELHIESSNFDSIYICPSTF [R9I], the protein stability index was 1.86. As for KMKTRELHWESSNFDSIYICPSTF [R9W], the protein stability index amounted to 1.78.

Regarding KMKTRELHEESSNFDSIYICPSTF [R9E], the protein stability index came out at 2.77. On to KMKTRELHQESSNFDSIYICPSTF [R9Q], for which the protein stability index was 2.58. In the case of KMKTRELHYESSNFDSIYICPSTF [R9Y], the protein stability index was determined as 2.09. With KMKTRELHNESSNFDSIYICPSTF [R9N], the protein stability index stood at 2.4.

As to KMKTRELHKESSNFDSIYICPSTF [R9K], the protein stability index worked out at 2.8. Regarding KMKTRELHMESSNFDSIYICPSTF [R9M], the protein stability index came to 1.84. For KMKTRELHTESSNFDSIYICPSTF [R9T], the protein stability index was found to be 2.39. Take GMKTRELHRESSNFDSIYICPSTF [K1G]: the protein stability index was found to be 2.29.

Consider NMKTRELHRESSNFDSIYICPSTF [K1N], for which the protein stability index came to 2.12. With YMKTRELHRESSNFDSIYICPSTF [K1Y], the protein stability index stood at 1.59. On to MMKTRELHRESSNFDSIYICPSTF [K1M], for which the protein stability index turned out to be 1.83.

As for IMKTRELHRESSNFDSIYICPSTF [K1I], the protein stability index amounted to 1.86. With PMKTRELHRESSNFDSIYICPSTF [K1P], the protein stability index is 2.58.

On to RMKTRELHRESSNFDSIYICPSTF [K1R], for which the protein stability index was found to be 1.38. Consider QMKTRELHRESSNFDSIYICPSTF [K1Q], for which the protein stability index worked out at 2.23. Take WMKTRELHRESSNFDSIYICPSTF [K1W]: the protein stability index stood at 1.98. As to SMKTRELHRESSNFDSIYICPSTF [K1S], the protein stability index is 2.3. Take DMKTRELHRESSNFDSIYICPSTF [K1D]: the protein stability index was 3.04. Take VMKTRELHRESSNFDSIYICPSTF [K1V]: the protein stability index worked out at 2.33.

AMKTRELHRESSNFDSIYICPSTF [K1A]: the protein stability index is 2.28.

With LMKTRELHRESSNFDSIYICPSTF [K1L], the protein stability index was 1.83. For the variant FMKTRELHRESSNFDSIYICPSTF [K1F], the protein stability index stood at 1.92.

Turning to EMKTRELHRESSNFDSIYICPSTF [K1E], the protein stability index worked out at 2.84. Consider HMKTRELHRESSNFDSIYICPSTF [K1H], for which the protein stability index worked out at 1.9. On to CMKTRELHRESSNFDSIYICPSTF [K1C], for which the protein stability index worked out at 1.7.

Take TMKTRELHRESSNFDSIYICPSTF [K1T]: the protein stability index was 2.14. Same read-out and setting: the figure for KMITRELHRESSNFDSIYICPSTF [K3I] is 1.68.
